Test results as given in paper PMC12077085, “Structural elements of cyanobacterial co-factor-independent phosphoglycerate mutase that mediate regulation by PirC” (mBio, 2025).
Values belong to the molecule of their own block, whether it stands above or below them.

What was measured:
[1] = target: strep-tagged iPGAM-ΔloopΔCT (Synechocystis iPGAM with the loop replaced by TKKGI and the C-terminal segment deleted) (Synechocystis sp. PCC 6803) (UniProt P74507)
[2] = target: strep-tagged iPGAM-Δloop (Synechocystis iPGAM with the loop replaced by TKKGI) (Synechocystis sp. PCC 6803) (UniProt P74507)
[3] = target: strep-tagged iPGAM (2,3-bisphosphoglycerate-independent phosphoglycerate mutase, Slr1945) of Synechocystis sp. PCC 6803, wild type (Synechocystis sp. PCC 6803) (UniProt P74507)
[4] = target: strep-tagged iPGAM-ΔCT (Synechocystis iPGAM with the C-terminal segment deleted) (Synechocystis sp. PCC 6803) (UniProt P74507)
[5] = target: T1, iPGAM (Slr1945), strep-iPGAM, iPGAM-WT (Synechocystis sp. PCC 6803, UniProt P74507, INS467TKKGI/DEL468-484, form not given); test: coupled enolase / pyruvate kinase / LDH assay, NADH decrease at […] nm; type: biochemical; conditions: 50 µM MnCl2; without PirC
T1 construct: gene gpmI; N-terminal strep-tag; expressed in E. coli Lemo21(DE3), Strep-Tactin purified; calculated 60 kDa; monomer by mass photometry

[6] = target: T2, iPGAM (Slr1945), strep-iPGAM, iPGAM-WT (Synechocystis sp. PCC 6803, UniProt P74507); test: as above; type: biochemical; conditions: 50 µM MnCl2; without PirC
T2 construct: gene gpmI; N-terminal strep-tag; expressed in E. coli Lemo21(DE3), Strep-Tactin purified; calculated 60 kDa; monomer by mass photometry

[7] = target: His-tagged PirC (Sll0944, PII-interacting regulator of carbon metabolism) (Synechocystis sp. PCC 6803) (UniProt P77971); test: BLI; Octet K2; His-tagged PirC immobilised on a Ni2+-NTA sensor, strep-iPGAM variants as analytes in various concentrations
[8] = target: strep-tagged PirC (Sll0944, PII-interacting regulator of carbon metabolism) (Synechocystis sp. PCC 6803) (UniProt P77971); test: mass photometry; Refeyn OneMP; strep-iPGAM and strep-PirC alone (iPGAM 10 nM) and mixed at an iPGAM-PirC ratio of 1:3
[9] = target: strep-tagged iPGAM (2,3-bisphosphoglycerate-independent phosphoglycerate mutase, Slr1945) of Synechocystis sp. PCC 6803, wild type (Synechocystis sp. PCC 6803) (UniProt P74507); test: as above
purified protein = substrate: O=C(O)[C@H](O)COP(=O)(O)O; test: purified protein; type: biochemical, Synechocystis sp. PCC 6803; conditions: 50 µM MnCl2; without PirC

Sequence of His-tagged PirC (Sll0944, PII-interacting regulator of carbon metabolism) (Synechocystis sp. PCC 6803) (P77971 whole entry): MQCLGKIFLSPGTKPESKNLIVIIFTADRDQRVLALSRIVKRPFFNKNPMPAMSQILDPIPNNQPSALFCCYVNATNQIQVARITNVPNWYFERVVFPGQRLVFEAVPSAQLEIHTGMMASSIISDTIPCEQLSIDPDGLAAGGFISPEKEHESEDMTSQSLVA

IC50 of PirC on iPGAM activity, coupled enzyme assay at 0.75 mM 3-PGA (50 to 1,600 nM PirC) [1]: 164 nM
IC50 of PirC on iPGAM activity, coupled enzyme assay at 0.75 mM 3-PGA (50 to 1,600 nM PirC) [2]: 217 nM
IC50 of PirC on iPGAM activity, coupled enzyme assay at 0.75 mM 3-PGA (50 to 1,600 nM PirC) [3]: 120 nM
IC50 of PirC on iPGAM activity, coupled enzyme assay at 0.75 mM 3-PGA (50 to 1,600 nM PirC) [4]: 1070 nM
Molecule: His-tagged PirC (Sll0944, PII-interacting regulator of carbon metabolism) (from UniProt P77971 1-164) (natural protein)

Km [5]: 547 ± 59 µM
Km [6]: 242 ± 19 µM
Molecule: O=C(O)[C@H](O)COP(=O)(O)O [3-PGA]

Kd [7]: 233 nM
Molecule: strep-tagged iPGAM-ΔloopΔCT (Synechocystis iPGAM with the loop replaced by TKKGI and the C-terminal segment deleted) (from UniProt P74507 1-532) (enzyme)

Kd [7]: 114 nM
Molecule: strep-tagged iPGAM-ΔCT (Synechocystis iPGAM with the C-terminal segment deleted) (from UniProt P74507 1-532) (enzyme)

stoichiometry N [8]: 6
stoichiometry N (PirC monomers per iPGAM) [9]: 3
Molecule: strep-tagged PirC (Sll0944, PII-interacting regulator of carbon metabolism) (from UniProt P77971 1-164) (natural protein)

Kd [7]: 203 nM
Molecule: strep-tagged iPGAM-Δloop (Synechocystis iPGAM with the loop replaced by TKKGI) (from UniProt P74507 1-532) (enzyme)

B1: iPGAM (Slr1945), strep-iPGAM, iPGAM-WT (Synechocystis sp. PCC 6803 substr. Kazusa; DEL468-484/INS467TKKGI) (protein)
chain: MAEAPIAPVVLVILDGWGYRPDTRANAIAQANTPIMDSLIAAYPNTLVNTSGKDVGLPKGQMGNSEVGHLNLGAGRVVPQELVRISDAIEDGTFFDNQALIEVCQRVRDRRGKLHLIGLCSDGGVHSHIDHLLGLIDLAKLQGISQLCIHAITDGRDTPTNEGAHFVQQIQAHLEKIGLGRIVSVSGRYYALDRDRRWDRVEKAYRVMTEDGVGDGRSAAQVIKDYYASDITDEFIPPTRIGAGAIASGDGVIFYNFRPDRARQLCYALVNPSFDGFPRERIQPLDFVTFTQYDPALPVVVAFEPQNLNNILGEIISRQGMKQFRTAETEKYPHVTYFFNGGLEQPFAGEDRELIQSPMVSTYDKAPQMSAKAVTDAVCRAMEKGIYSLVVVNYANPDMVGHTGKLKEAIQAIETVDLNLGRLLASAAKVGGTVLITADHGNAEYMSDESGNPWTAHTTNPVPFILVTKKGIEGGKLADIAPTILDILQLPVPAEMTGKTLIDQPLVEIKANRTPVNLSR
notes: N-terminal strep-tag; expressed in E. coli Lemo21(DE3), Strep-Tactin purified; calculated 60 kDa; monomer by mass photometry
Km (purified protein): 1087 ± 141 µM
Vmax (purified protein): 6.86 µmol/min/mg
kcat (purified protein): 6.7 ± 0.4 s⁻¹
kcat/Km (purified protein): 6190 ± 874 M⁻¹ s⁻¹

Kd [7]: 378 nM
B2: strep-tagged iPGAM (2,3-bisphosphoglycerate-independent phosphoglycerate mutase, Slr1945) of Synechocystis sp. PCC 6803, wild type (enzyme)
chain: MAEAPIAPVVLVILDGWGYRPDTRANAIAQANTPIMDSLIAAYPNTLVNTSGKDVGLPKGQMGNSEVGHLNLGAGRVVPQELVRISDAIEDGTFFDNQALIEVCQRVRDRRGKLHLIGLCSDGGVHSHIDHLLGLIDLAKLQGISQLCIHAITDGRDTPTNEGAHFVQQIQAHLEKIGLGRIVSVSGRYYALDRDRRWDRVEKAYRVMTEDGVGDGRSAAQVIKDYYASDITDEFIPPTRIGAGAIASGDGVIFYNFRPDRARQLCYALVNPSFDGFPRERIQPLDFVTFTQYDPALPVVVAFEPQNLNNILGEIISRQGMKQFRTAETEKYPHVTYFFNGGLEQPFAGEDRELIQSPMVSTYDKAPQMSAKAVTDAVCRAMEKGIYSLVVVNYANPDMVGHTGKLKEAIQAIETVDLNLGRLLASAAKVGGTVLITADHGNAEYMSDESGNPWTAHTTNPVPFILVEGEGRKIPGHGGEVKLREGGKLADIAPTILDILQLPVPAEMTGKTLIDQPLVEIKANRTPVNLSR

B3: iPGAM (Slr1945), strep-iPGAM, iPGAM-WT (Synechocystis sp. PCC 6803 substr. Kazusa) (protein)
chain: MAEAPIAPVVLVILDGWGYRPDTRANAIAQANTPIMDSLIAAYPNTLVNTSGKDVGLPKGQMGNSEVGHLNLGAGRVVPQELVRISDAIEDGTFFDNQALIEVCQRVRDRRGKLHLIGLCSDGGVHSHIDHLLGLIDLAKLQGISQLCIHAITDGRDTPTNEGAHFVQQIQAHLEKIGLGRIVSVSGRYYALDRDRRWDRVEKAYRVMTEDGVGDGRSAAQVIKDYYASDITDEFIPPTRIGAGAIASGDGVIFYNFRPDRARQLCYALVNPSFDGFPRERIQPLDFVTFTQYDPALPVVVAFEPQNLNNILGEIISRQGMKQFRTAETEKYPHVTYFFNGGLEQPFAGEDRELIQSPMVSTYDKAPQMSAKAVTDAVCRAMEKGIYSLVVVNYANPDMVGHTGKLKEAIQAIETVDLNLGRLLASAAKVGGTVLITADHGNAEYMSDESGNPWTAHTTNPVPFILVEGEGRKIPGHGGEVKLREGGKLADIAPTILDILQLPVPAEMTGKTLIDQPLVEIKANRTPVNLSR
notes: as for B1
Km (purified protein): 265 ± 13 µM
Vmax (purified protein): 18.6 µmol/min/mg
kcat (purified protein): 18.6 ± 0.3 s⁻¹
kcat/Km (purified protein): 70200 ± 3590 M⁻¹ s⁻¹
